The record followed here is PMC3085015.

As usually defined, the stoichiometry N is a count of units in the complex or per binding partner.

Assay [1] addresses F14Bpa-Rop (UniProt P03051). In words: SEC. (In general: Size exclusion chromatography separates by hydrodynamic size, large species first.)
Assay [2] deals with F14Bpa-Rop (UniProt P03051). Nature of the assay: cross-linking.
The target of assay [3] is F14Bpa-Rop (UniProt P03051). Nature of the assay: cross-linking + SEC.
Assay [4] deals with F14Bpa-Rop (UniProt P03051). In words: cross-linking. The source holds these as a separate data set.
The target of another assay is wild type Rop (UniProt P03051). Nature of the assay: SEC.

Regarding “F14Bpa-Rop (from UniProt P03051 1-63) (natural protein)”, the stoichiometry N in the assay with F14Bpa-Rop [1] was 2; with F14Bpa-Rop [2], 4; with F14Bpa-Rop [3], 4; with F14Bpa-Rop [4], 4.

Substance “wild type Rop (from UniProt P03051 1-63) (natural protein)” gave a stoichiometry N in the assay with wild type Rop of 2.
